Results taken from the supplement of paper PMC10567573.
± gives the standard deviation.

Experiment: protein stability index of a GFP-peptide fusion (GPS, HEK-293T) (PSI 1-6); higher = more stable
[1] = treatment: DMSO, c terminus: native
[2] = treatment: MLN4924 1 uM, 8 h, c terminus: native
[3] = treatment: DMSO, c terminus: a fixed tail appended
[4] = treatment: MLN4924 1 uM, 8 h, c terminus: a fixed tail appended
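Note: 24-mer peptide tiles fused after GFP, lentivirally expressed, FACS-sorted into six equal bins by GFP/DsRed ratio, decoded by Illumina sequencing, PSI is the read-weighted mean bin number.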

Sequence	protein stability index [1]	protein stability index [2]	protein stability index [3]	protein stability index [4]
RRVWSPPRVHKVEMGFGGGGGAN [ZBTB22]	4.13 ± 0.3	3.92 ± 0.14		
FREDGAYEFNPDFLEEAHEWNQKR [N4BP2L1]			4.71 ± 0.16	4.53 ± 0.26
IKLREYEAALNSKDAALATALGDK [LMNB1]			4.076 ± 0.039	4.38 ± 0.15
PVRRIDGLTDVSQIITVTVQTGLD [IQUB]			2.47 ± 0.45	2.45 ± 0.52
FWPAKVMQKEDNQVDVRFFGHHHQ [ZMYND11]			2.71 ± 0.52	2.47 ± 0.18
NVSLGPGVVVEDGVCIRRCTVLRD [GMPPB]			3.54 ± 0.27	3.44 ± 0.29
EFISSTKRPYAKELETVDFKDKLE [SERPINB5]			3.98 ± 0.24	4.32 ± 0.13
APRVRTAFTMEQVRTLEGVFQHHQ [VENTX]			3.33 ± 0.22	3.26 ± 0.22
YLLTVMAAAAKAFKHPSIRNPVSL [ADAMTS4]			2.56 ± 0.62	2.15 ± 0.32
QSYPSQDKPLPPPPPGSLSRTQEP [SOAT2]			5.2 ± 0.41	5.08 ± 0.24
DPVLAKVAGDCLDEKQCKQCANKV [LRRC59]			4.99 ± 0.42	5.07 ± 0.09
PQKSYFIRLYGLQAGRLLWEQELY [WAS]			2.28 ± 0.32	2.15 ± 0.19
MPVQLTSRREIRKIMGVEEEDDDD [ANKRD40]			5.62 ± 0.19	5.57 ± 0.13
RPLARPIKPNEILPPEKGREVAKE [RHOBTB2]			4.91 ± 0.16	4.68 ± 0.66
GLPGSFIKEVQKGGPADLAGLEDE [PDZK1]			5.59 ± 0.14	5.37 ± 0.25
NGASWHTVAGSLNDFSYLHTNCFE [CPXM2]			2.68 ± 0.47	2.83 ± 0.23
LAYYEVCSWKGATKQRIQDQKVPY [CHIT1]			2.71 ± 0.4	2.8 ± 0.37
GCFTLPRSEPIRPIDPAAWVSHTA [DVL3]			2.81 ± 0.25	3 ± 0.42
LYHRADVEKVLRRWVDEEWPKRER [EDARADD]			2.87 ± 0.31	2.94 ± 0.45
LESLQDGAAESPYAYSNGIDYKTT [RAB40C]			4.29 ± 0.34	4.5 ± 0.16
YNLTILDCLQGIRKGLQHGFFDFE [CDC14A]			2.68 ± 1.1	2.71 ± 0.89
RPEELLQMELLLVNKLKWNLAAMT [CCND1]			2.68 ± 0.71	2.52 ± 0.66
YVKVLHHMVKISGGPRISYPLLHE [MAGEA6]			2.68 ± 0.52	2.41 ± 0.5

Sequence	protein stability index [1]	protein stability index [2]	protein stability index [3]	protein stability index [4]
YTFHARFGEVRPYFYLGGARGAGP [TRIM35]			2.27 ± 0.083	2.28 ± 0.4
PPNQQMSPSPMSHGHYSMHCLHSA [DLX1]			3.1 ± 0.31	3.13 ± 0.15
YSSNQLHHFFCDIAPVLKLASHHN [OR10K2]			2.59 ± 0.72	2.17 ± 0.38
CWNTSYCSIKCQQEHWHAEHKRTC [ZMYND11]			2.31 ± 0.39	2.32 ± 0.22
PAFPFIYTPTAEDSAQMQNGGPST [ANKRD40]			4.55 ± 0.12	4.5 ± 0.23
MEAVLNELVSVEDLLKFEKKFQSE [FIS1]			3.69 ± 0.25	3.65 ± 0.27
AGLSLLSPSVMRLVHTQEPGEWLE [ALKBH7]			2.71 ± 0.38	2.79 ± 0.24
CQQEQLFQTRQEMTSMSAELKMRA [LRRC45]			3.03 ± 0.42	3.1 ± 0.21
NLLFKPPVESHIQKNKKILKSAKD [KMT2E]			3.61 ± 0.099	3.6 ± 0.38
VKRRRTASLSNQECQLYPRRSQQQ [SNURF]			4.43 ± 0.18	4.45 ± 0.19
DYIRRYLPVLRGFPAKYIYDPWNA [CRY1]			2.53 ± 0.5	2.16 ± 0.2
PVQPGMLIDVCKYLGSLQYRVWKK [TRIM35]			2 ± 0.2	2.17 ± 0.29
AEMAEDYPRYPDIHDLDLTLLNPR [CLCN6]			4.05 ± 0.28	4.21 ± 0.25
RENEELSARYLSQCQEAEQARAEL [FBF1]			5.38 ± 0.16	5.34 ± 0.09
IDSYDPSTGEVYCRVPNSGKDEIE [ALDH8A1]			4.97 ± 0.2	4.92 ± 0.2
EGAQRDRFPGRKQPGVHEEPVLKK [C22orf31]			5.15 ± 0.3	5.17 ± 0.31
SWEKVTGHNSPLYKRQEESGAAAS [CHIT1]			4.77 ± 0.37	4.51 ± 0.32
FAVFPSLNEEQTLQEVPTGLDSIS [ETS2]			3.81 ± 0.32	3.79 ± 0.39
KGLLKKGACYGDDACFVARHRSAD [PPTC7]			4.16 ± 0.56	4.05 ± 0.25
PASGEVEASQLRRLNIKKDDEFFH [TMEM40]			4.79 ± 0.1	4.78 ± 0.25
ERDRISTRRSSYEDSSLPSINALL [HNF4A]			3.79 ± 0.097	3.84 ± 0.49
EALKHPWICQRSTVASMMHRQETV [CAMK2D]			2.81 ± 0.28	2.73 ± 0.25
IDKKPVSEKTDESDTIPYLKKFLY [MIA2]			2.83 ± 0.57	2.95 ± 0.4

Sequence	protein stability index [1]	protein stability index [2]	protein stability index [3]	protein stability index [4]
EQCLPSLENSKYCRFNQDPEAVDE [ATE1]			5.16 ± 0.45	5.16 ± 0.26
RGEQTTSQVSWEQDLKLFLQEPGV [FCHSD1]			4.01 ± 0.27	4.06 ± 0.43
KNGLSFIETSALDSTNVEAAFQTI [RAB11A]			3.31 ± 0.27	3.56 ± 0.43
DSSEEKHLEEPGETQNAFLNERKQ [CHGB]			5.5 ± 0.41	5.41 ± 0.36
FVGYNPYSHLAYNNYRLGGNPSTN [SMARCE1]			2.87 ± 0.21	2.54 ± 0.2
GGCYFGPDVTQQLLQKYNMQFLIR [PPEF2]			1.92 ± 0.29	2.2 ± 0.37
AEGDSWEEEGFGSSSPVKSPAAPY [WEE1]			5.28 ± 0.13	5.19 ± 0.22
IYSTDLHKLDLNTREWTQLKPNNL [KLHDC10]			2.65 ± 0.18	2.81 ± 0.15
YQDKIRPYIQLPSHSNITGIVEVI [TRIB1]			2.39 ± 0.3	2.17 ± 0.094
CHLNGIVHRDLKPENLLLASKSKG [CAMK2D]			3.52 ± 0.36	3.56 ± 0.19
EKLLERQGQAKTPDSMFLAMLAVV [CDK11A]			1.95 ± 0.21	2.2 ± 0.55
QTIQKTTTRRIVDGKVVSETNDTK [KRT18]			5.34 ± 0.19	5.31 ± 0.23
EPEEEILGSDDEEQEDPADYCKGG [SRPK2]			5.54 ± 0.29	5.55 ± 0.24
PQIPVDRGSETTYESSADIAGDEG [TAF7L]			5.46 ± 0.22	5.48 ± 0.32
HLAPSEAKAADSPTRNDLESGLGH			5.14 ± 0.34	5.37 ± 0.058
GLTFQGLLPLTELSVCPLEGSREH [PLEKHN1]			3.57 ± 0.35	3.62 ± 0.35
EALVRTVLRAGDREDITEPAICAL [CTNNB1]			3.45 ± 0.29	3.6 ± 0.51
VRNDSCVVHEDFREDILSCYDVYS [PKD2L1]			2.99 ± 0.34	3.16 ± 0.28
KLTQRLEEMTQRMEALENRLRYR [MATN2]	2.7 ± 0.51	2.79 ± 0.34		
NQLTHTDLKPENILFVNSEFETLY [CLK3]			3.29 ± 0.35	3.27 ± 0.18
EHQYRLPPMGKAFQELAGKELCAM [SPDEF]			3.19 ± 0.26	3.23 ± 0.098
PLGVLQAIAMYFLPPSPRFLVMKG [SLC2A12]			2.64 ± 0.98	2.88 ± 1.3
VAQLFNCMVGLLLIALLTWGYIRY [ATL3]			3.11 ± 0.58	2.77 ± 0.42

Sequence	protein stability index [1]	protein stability index [2]	protein stability index [3]	protein stability index [4]
QCIECGKSFNRHCNLIRHQKIHTV [ZSCAN9]			3.37 ± 0.3	3.36 ± 0.38
MKAAVDLKPTLTIIKTEKVDLELF [ETS1]			2.46 ± 0.35	2.55 ± 0.32
DDIEEKTPISNEVEMESEEQIAER [KMT2E]			5.8 ± 0.16	5.66 ± 0.26
SILLCLLASGLVVFFLFPHSVLVD [TMEM106C]			3 ± 0.49	2.56 ± 0.044
MELQKGKGAAAAAAASGAAGGGGG [INTS3]			5.19 ± 0.43	5.26 ± 0.36
AWGFPENATAPRSPSHSPEHRRTA [ELOA2]			5 ± 0.15	4.87 ± 0.16
RLLSVPELCHHVAEVWVSGTIFIR [RETREG3]			2.96 ± 0.4	2.69 ± 0.53
ELNGHTQKITAIITFPSLESCEEK [WDR41]			3.1 ± 0.29	3.42 ± 0.42
ETQEQDVDLVQKYLEKYYNLKNDG [MMP1]			3.99 ± 0.38	3.92 ± 0.3
AIFDAGTLGGELGALEALELSPPL [FOXJ1]			3.26 ± 0.23	3.31 ± 0.31
MAMQMQLEANADTSVEEESFGPQP [RAD51]			5.15 ± 0.25	5.26 ± 0.13
RRTAENKLDTKYPYVCHAELNAIM [DCTD]			2.29 ± 0.15	2.37 ± 0.49
ESRQTEVVIRDIDERAMELLIDFA [KLHL20]			2.9 ± 0.095	2.96 ± 0.24
RLVQLLVRAHQDTQRRTSMGGTQQ [CTNNB1]			2.23 ± 0.25	2.54 ± 0.54
KKALSGLSSRWKNWWIRGILTLTM [CDS1]			2.14 ± 0.091	2.22 ± 0.19
KKAFVWARNIGFKVNSKKMLGKYN [ACSBG2]			2.5 ± 0.46	2.35 ± 0.38
CPLLLGSVMAIERCIGVTKPIFHS [PTGFR]			2.78 ± 0.87	2.77 ± 0.68
TNTHPPASLPSQKYPGPQAEGDSE [CHGA]			5.43 ± 0.2	5.57 ± 0.13
CICGFTHDDGYMICCDKCSVWQHI [KMT2E]			3.19 ± 0.39	3.29 ± 0.41
LGVYSALREIAFTRQLHEKTSQLS [ATE1]			2.59 ± 0.71	2.4 ± 0.69
